# Experimental data from IntAct's records for PubMed 29892012.
# B1: Coiled-coil alpha-helical rod protein 1 (Homo sapiens), Q8TD31 (parent)
# chain: MFPPSGSTGLIPPSHFQARPLSTLPRMAPTWLSDIPLVQPPGHQDVSERRLDTQRPQVTMWERDVSSDRQEPGRRGRSWGLEGSQALSQQAEVIVRQLQELRRLEEEVRLLRETSLQQKMRLEAQAMELEALARAEKAGRAEAEGLRAALAGAEVVRKNLEEGSQRELEEVQRLHQEQLSSLTQAHEEALSSLTSKAEGLEKSLSSLETRRAGEAKELAEAQREAELLRKQLSKTQEDLEAQVTLVENLRKYVGEQVPSEVHSQTWELERQKLLETMQHLQEDRDSLHATAELLQVRVQSLTHILALQEEELTRKVQPSDSLEPEFTRKCQSLLNRWREKVFALMVQLKAQELEHSDSVKQLKGQVASLQEKVTSQSQEQAILQRSLQDKAAEVEVERMGAKGLQLELSRAQEARRRWQQQTASAEEQLRLVVNAVSSSQIWLETTMAKVEGAAAQLPSLNNRLSYAVRKVHTIRGLIARKLALAQLRQESCPLPPPVTDVSLELQQLREERNRLDAELQLSARLIQQEVGRAREQGEAERQQLSKVAQQLEQELQQTQESLASLGLQLEVARQGQQESTEEAASLRQELTQQQELYGQALQEKVAEVETRLREQLSDTERRLNEARREHAKAVVSLRQIQRRAAQEKERSQELRRLQEEARKEEGQRLARRLQELERDKNLMLATLQQEGLLSRYKQQRLLTVLPSLLDKKKSVVSSPRPPECSASAPVAAAVPTRESIKGSLSVLLDDLQDLSEAISKEEAVCQGDNLDRCSSSNPQMSS
# partner: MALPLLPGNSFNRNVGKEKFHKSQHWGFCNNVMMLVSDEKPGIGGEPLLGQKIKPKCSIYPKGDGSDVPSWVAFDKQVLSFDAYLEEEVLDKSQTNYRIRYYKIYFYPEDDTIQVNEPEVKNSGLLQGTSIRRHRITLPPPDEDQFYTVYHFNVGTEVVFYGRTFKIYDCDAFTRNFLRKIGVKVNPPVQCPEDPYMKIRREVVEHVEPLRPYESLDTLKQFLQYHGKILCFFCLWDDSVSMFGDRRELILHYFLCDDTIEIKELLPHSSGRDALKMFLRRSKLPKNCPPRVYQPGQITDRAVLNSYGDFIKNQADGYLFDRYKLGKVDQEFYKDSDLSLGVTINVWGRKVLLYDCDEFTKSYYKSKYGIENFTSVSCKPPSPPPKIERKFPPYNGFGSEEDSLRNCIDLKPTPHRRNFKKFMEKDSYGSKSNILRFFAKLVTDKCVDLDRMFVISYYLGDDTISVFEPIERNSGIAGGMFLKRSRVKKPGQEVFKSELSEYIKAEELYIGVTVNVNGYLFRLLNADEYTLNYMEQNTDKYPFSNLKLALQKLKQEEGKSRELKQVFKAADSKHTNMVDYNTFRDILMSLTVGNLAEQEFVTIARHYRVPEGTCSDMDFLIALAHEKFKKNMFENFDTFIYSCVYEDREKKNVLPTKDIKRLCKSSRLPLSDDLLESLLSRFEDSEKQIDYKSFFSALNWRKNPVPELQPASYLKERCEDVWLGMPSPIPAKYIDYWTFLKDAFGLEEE
# B2: Transmembrane protein 218 (Homo sapiens), A2RU14 (parent)
# chain: MAGTVLGVGAGVFILALLWVAVLLLCVLLSRASGAARFSVIFLFFGAVIITSVLLLFPRAGEFPAPEVEVKIVDDFFIGRYVLLAFLSAIFLGGLFLVLIHYVLEPIYAKPLHSY
# B3: Glycodelin (Homo sapiens), P09466 (parent)
# chain: MLCLLLTLGVALVCGVPAMDIPQTKQDLELPKLAGTWHSMAMATNNISLMATLKAPLRVHITSLLPTPEDNLEIVLHRWENNSCVEKKVLGEKTENPKKFKINYTVANEATLLDTDYDNFLFLCLQDTTTPIQSMMCQYLARVLVEDDEIMQGFIRAFRPLPRHLWYLLDLKQMEEPCRF
# partner: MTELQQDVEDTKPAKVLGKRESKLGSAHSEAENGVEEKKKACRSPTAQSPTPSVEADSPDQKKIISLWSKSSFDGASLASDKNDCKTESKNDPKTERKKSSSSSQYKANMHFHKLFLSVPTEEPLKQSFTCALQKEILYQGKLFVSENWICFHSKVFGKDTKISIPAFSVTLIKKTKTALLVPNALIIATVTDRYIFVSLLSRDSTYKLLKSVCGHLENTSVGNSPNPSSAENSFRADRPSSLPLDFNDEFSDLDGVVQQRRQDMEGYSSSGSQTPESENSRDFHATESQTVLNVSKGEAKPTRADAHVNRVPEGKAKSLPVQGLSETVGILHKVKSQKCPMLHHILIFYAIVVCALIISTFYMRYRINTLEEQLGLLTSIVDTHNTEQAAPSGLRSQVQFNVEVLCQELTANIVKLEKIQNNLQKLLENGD
# B4: TBC1 domain family member 22B (Homo sapiens), Q9NU19 (parent)
# chain: MAAENSKQFWKRSAKLPGSIQPVYGAQHPPLDPRLTKNFIKERSKVNTVPLKNKKASSFHEFARNTSDAWDIGDDEEEDFSSPSFQTLNSKVALATAAQVLENHSKLRVKPERSQSTTSDVPANYKVIKSSSDAQLSRNSSDTCLRNPLHKQQSLPLRPIIPLVARISDQNASGAPPMTVREKTRLEKFRQLLSSQNTDLDELRKCSWPGVPREVRPITWRLLSGYLPANTERRKLTLQRKREEYFGFIEQYYDSRNEEHHQDTYRQIHIDIPRTNPLIPLFQQPLVQEIFERILFIWAIRHPASGYVQGINDLVTPFFVVFLSEYVEEDVENFDVTNLSQDMLRSIEADSFWCMSKLLDGIQDNYTFAQPGIQKKVKALEELVSRIDEQVHNHFRRYEVEYLQFAFRWMNNLLMRELPLRCTIRLWDTYQSEPEGFSHFHLYVCAAFLIKWRKEILDEEDFQGLLMLLQNLPTIHWGNEEIGLLLAEAYRLKYMFADAPNHYRR
# partner: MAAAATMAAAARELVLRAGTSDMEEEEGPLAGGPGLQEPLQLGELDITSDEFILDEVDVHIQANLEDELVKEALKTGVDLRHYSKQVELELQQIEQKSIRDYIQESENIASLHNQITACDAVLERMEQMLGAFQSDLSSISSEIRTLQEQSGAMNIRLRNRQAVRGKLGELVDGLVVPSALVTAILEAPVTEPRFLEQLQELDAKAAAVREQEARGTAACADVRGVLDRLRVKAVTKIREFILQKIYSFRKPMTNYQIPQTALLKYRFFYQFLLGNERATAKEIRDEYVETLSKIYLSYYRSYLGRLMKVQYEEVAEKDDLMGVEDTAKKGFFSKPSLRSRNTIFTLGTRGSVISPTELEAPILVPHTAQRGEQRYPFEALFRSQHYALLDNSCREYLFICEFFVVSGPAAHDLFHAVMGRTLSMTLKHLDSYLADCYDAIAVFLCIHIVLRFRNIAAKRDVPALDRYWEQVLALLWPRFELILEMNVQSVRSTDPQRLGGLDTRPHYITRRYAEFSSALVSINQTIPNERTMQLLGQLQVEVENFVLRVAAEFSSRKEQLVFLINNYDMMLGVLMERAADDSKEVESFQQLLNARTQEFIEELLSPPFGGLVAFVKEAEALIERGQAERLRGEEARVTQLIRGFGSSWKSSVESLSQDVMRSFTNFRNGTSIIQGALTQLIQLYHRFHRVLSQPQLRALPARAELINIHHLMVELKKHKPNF
# B5: Small glutamine-rich tetratricopeptide repeat-containing protein beta (Homo sapiens), Q96EQ0 (parent)
# chain: MSSIKHLVYAVIRFLREQSQMDTYTSDEQESLEVAIQCLETVFKISPEDTHLAVSQPLTEMFTSSFCKNDVLPLSNSVPEDVGKADQLKDEGNNHMKEENYAAAVDCYTQAIELDPNNAVYYCNRAAAQSKLGHYTDAIKDCEKAIAIDSKYSKAYGRMGLALTALNKFEEAVTSYQKALDLDPENDSYKSNLKIAEQKLREVSSPTGTGLSFDMASLINNPAFISMAASLMQNPQVQQLMSGMMTNAIGGPAAGVGGLTDLSSLIQAGQQFAQQIQQQNPELIEQLRNHIRSRSFSSSAEEHS
# partner: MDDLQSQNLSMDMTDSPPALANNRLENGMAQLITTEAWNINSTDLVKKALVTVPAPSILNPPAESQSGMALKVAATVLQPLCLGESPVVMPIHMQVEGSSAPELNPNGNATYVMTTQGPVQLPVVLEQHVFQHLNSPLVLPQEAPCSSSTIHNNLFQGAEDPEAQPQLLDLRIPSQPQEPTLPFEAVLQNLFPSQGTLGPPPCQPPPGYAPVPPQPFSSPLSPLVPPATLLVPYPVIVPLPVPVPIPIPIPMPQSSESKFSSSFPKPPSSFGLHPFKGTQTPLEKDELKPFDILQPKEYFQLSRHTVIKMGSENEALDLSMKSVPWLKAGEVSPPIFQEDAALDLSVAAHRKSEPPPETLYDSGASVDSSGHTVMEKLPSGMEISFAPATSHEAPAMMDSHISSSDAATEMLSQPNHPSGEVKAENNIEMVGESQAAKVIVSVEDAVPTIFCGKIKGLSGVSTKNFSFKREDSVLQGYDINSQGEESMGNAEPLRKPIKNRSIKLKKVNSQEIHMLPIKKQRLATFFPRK
# Variants of: B1
# Conditions: with efhc2_human EFHC2, Q5JST6
row,Variant,effect of a mutation on the interaction
1,W337R,disrupting interaction strength

# Variants of: B2
# Conditions: with pcna_human PCNA
row,Variant,effect of a mutation on the interaction
1,P66S,with no effect

# Variants of: B3
# Conditions: with grm2b_human GRAMD2B
row,Variant,effect of a mutation on the interaction
1,V75F,disrupting interaction strength

# Variants of: B4
# Conditions: with vps52_human VPS52, Q8N1B4
row,Variant,effect of a mutation on the interaction
1,A349T,disrupting interaction strength

# Variants of: B5
# Conditions: with rai2_human RAI2, Q9Y5P3
row,Variant,effect of a mutation on the interaction
1,R292W,with no effect
